According to patent US20200277359A1 (published 2020):

Key:
Recombinant CHIKV p62-E1 = target: T1, Recombinant CHIKV p62-E1 (Chikungunya virus); assay: SPR (Biacore T100), IgG captured on anti-human IgG, p62-E1 injected
T1 construct: also called soluble CHIKV p62-E1; monomeric E1 protein

[1] = target: T2, Recombinant CHIKV E2 ectodomain protein (corresponding to the CHIKV-LR2006 strain) (Chikungunya virus strain LR2006); assay: ELISA on coated E2 ectodomain, mAb at 10 µg/mL
T2 construct: extracellular domain; also called CHIKV-LR2006 E2 ectodomain; purified E2 protein

| Binder | Kd (Recombinant CHIKV p62-E1) | koff (Recombinant CHIKV p62-E1) | kon (Recombinant CHIKV p62-E1) | t1/2 (Recombinant CHIKV p62-E1) | OD450 [1] |
| --- | --- | --- | --- | --- | --- |
| human mAb 5O14 (antibody, V domains shown) VH: QVQLVQSGGRVVQAGRSLRLSCAASGFTFSMYGVHWVRQAPGKGLEWVAVIWNDGSKEYYGDSVKGRFTISRDNSRNTLYLQMNSLRVDDTAVYFCARDGIPDPERGDYGGLDYWGQGTLVTVSS VL: QTVVTQFPSSPFASVGDGVTITCRARQSISSYVNWYQQKPGKAPKLLIYATSSLQSGVPSRFSGSGYGTDFTLTISGLQPEDFATYYCQQSYSFPRTFGQGTKVEIK | 1.15 nM | 0.000911 s⁻¹ | 790000 M⁻¹ s⁻¹ | 13 min | > 1 od |
| human mAb 4J21 (antibody, V domains shown) VH: QVQLVQSGSELKKPGASVKVSCKASGYSFTSYSINWVRQAPGQGPEWMGWIDTNTGNPTYAQDFAGRFVFSLDTSVTTAYLQISSLKAGDTAVYYCATYYVDLWGSYRQDYYGMDVWGHGTLVTVSS VL: QSVVTQPPSVSGTPGQGVTISCSGGSSNIGSNPVNWYQMVPGTAPKLLLYTNNQRPSGVPDRFSGSKSGTSASLAINGLQSEDEADYYCAVWDDSLSGRWVFGGGTKLTVL |  |  |  | 186 min | 0.5 to 0.99 od |
| human mAb 2B4 (antibody, V domains shown) VH: QVQLVQSGSELKKPGASVKVSCKASGYSFTSYSINWVRQAPGQGPEWMGWIDTNTGNPTYAQDFAGRFVFSLDTSVTTAYLQISSLKAGDTAVYYCATYYVDLWGSYRQDYYGMDVWGH VL: QSVLTQPPSASGTPGQRVTISCSGGSSNIGSNPVNWYQMVPGTAPKLLLYTNNQRPSGVPDRFSGSKSGTSASLAINGLQSEDEADYYCAVWDDSLSGRWVFGGGTKVTVL |  |  |  |  | 0.5 to 0.99 od |
| human mAb 2C2 (antibody, V domains shown) VH: QVQLVQSGGGLVQPGRSLTLSCAASGFTFDVYAMHWVRQAPGKGLEWVAGISWNSGSVGYADSMKGRFTISRDNAKNSLYLQINSLRAEDTALYYCAKAFWFGELSGYGMDVWGQGTLVTVSS VL: QAVVTQPPSASGFPGQSVTISCTGTSSDVGSYNYVSWYQQHPGKAPKLIIYAVTRRPSGVPERFSGSKSGNTASLTVSGLQAEDEADYYCTSYAGNNKDVFGTGTKVTVL |  |  |  | 19 min |  |
